One block for each binder: values may come before it.
Key:
[1] = biological target: T1, PD-1 (programmed cell death protein 1), on cells (UniProt Q15116 25-288, limits assumed); assay: cell-based or functional assay
TGF-β1 [2] = biological target: T2, TGF-β1 (UniProt P01137 279-390); assay: cell-based or functional assay
TGF-β3 [3] = biological target: T3, TGF-β3 (UniProt P10600 301-412); assay: cell-based or functional assay
T3 sequence (looked up): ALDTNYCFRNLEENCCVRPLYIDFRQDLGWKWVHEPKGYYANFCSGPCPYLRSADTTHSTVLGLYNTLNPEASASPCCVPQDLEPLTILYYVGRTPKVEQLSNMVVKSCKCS

PD-1 Fc fusion protein [4] = biological target: T4, PD-1 Fc fusion protein (UniProt Q15116 25-167, limits assumed); assay: SPR (Biacore 3000), PD-1 Fc immobilised on CM5 chip, fusion protein injected
T4 construct: Antigen immobilised on the CM5 chip in all PD-1 SPR assays; also called PD-1 fused to human Fc region; PD-1-Fc antigen; not shown: human Fc region
Description: (§1) Surface plasma resonance (SPR) analysis was performed using Biacore3000, CM5 chip, an amine-coupling kit, 10×HBS-P running buffer and Glycine for regeneration (GE Healthcare). […] Dissociation was allowed to proceed followed by a pulse of 10 mM Glycine (pH 1.5) for regeneration of the chip surface.

[5] = biological target: T1, PD-1 (programmed cell death protein 1), …; assay: cell-based or functional assay; remark: listed apart in the source
PD-1 Fc fusion protein [6] = biological target: T4, PD-1 Fc fusion protein; assay: SPR (Biacore 3000), recombinant PD-1 Fc immobilised on CM5 chip, fusion protein injected
Description: Surface plasma resonance (SPR) analysis was performed using Biacore3000, CM5 chip, an amine-coupling kit, 10×HBS-P running buffer and Glycine for. […] Dissociation was allowed to proceed followed by regeneration of the chip surface.

TGF-β1 [7] = biological target: T2, TGF-β1; assay: SPR (Biacore 3000), fusion protein immobilised on CM5 chip, TGF-β1 injected
Description: as §1

TGF-β2 = biological target: T5, TGF-β2 (UniProt P61812 303-414); assay: SPR (Biacore 3000), fusion protein immobilised on CM5 chip, TGF-β2 injected
T5 sequence (looked up): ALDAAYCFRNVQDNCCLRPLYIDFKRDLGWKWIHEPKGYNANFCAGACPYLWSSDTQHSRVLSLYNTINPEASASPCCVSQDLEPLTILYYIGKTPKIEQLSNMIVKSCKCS
Description: as §1

TGF-β3 [8] = biological target: T3, TGF-β3; assay: SPR (Biacore 3000), fusion protein immobilised on CM5 chip, TGF-β3 injected
Description: as §1

T2 sequence (P01137 279-390 limits assumed): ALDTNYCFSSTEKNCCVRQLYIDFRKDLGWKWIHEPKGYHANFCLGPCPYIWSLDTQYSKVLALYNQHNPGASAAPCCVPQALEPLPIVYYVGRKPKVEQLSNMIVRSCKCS
T4 sequence (Q15116 25-167 limits assumed): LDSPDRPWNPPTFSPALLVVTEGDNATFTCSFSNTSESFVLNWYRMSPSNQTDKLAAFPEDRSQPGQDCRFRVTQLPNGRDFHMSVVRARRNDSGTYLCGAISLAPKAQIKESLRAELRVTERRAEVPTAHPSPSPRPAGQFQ
T1 sequence (Q15116 25-288 limits assumed): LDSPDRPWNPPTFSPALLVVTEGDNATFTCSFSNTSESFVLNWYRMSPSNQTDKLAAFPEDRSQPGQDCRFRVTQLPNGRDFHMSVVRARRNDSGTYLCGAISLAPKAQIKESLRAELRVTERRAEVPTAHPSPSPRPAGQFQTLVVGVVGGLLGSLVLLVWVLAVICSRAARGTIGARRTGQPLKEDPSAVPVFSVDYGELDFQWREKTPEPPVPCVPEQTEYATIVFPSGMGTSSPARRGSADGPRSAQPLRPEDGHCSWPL

IC50; neutralisation of TGF-β1 signalling, HEK-Blue TGF-β reporter cells (SEAP, absorbance 620 nM) (TGF-β1 [2]): 12.7 pM
IC50; neutralisation of TGF-β3 signalling, HEK-Blue TGF-β reporter cells (SEAP, absorbance 620 nM) (TGF-β3 [3]): 5.3 pM
Kd (PD-1 Fc fusion protein [4]): 7.64 pM
B1: Anti-PD1(VH6-VL5) IgG1-TGFβRII (antibody)
VH: QVQLVESGGGVVQPGRSLRLDCKASGITFSNSGMHWVRQAPGKGLEWVAVIWYDGSKRYYADSVKGRFTISRDNSKNTLFLQMNSLRAEDTAVYYCATNDDYWGQGTLVTVSS
VL: EIVLTQSPATLSLSPGERATLSCRASQSVSSYLAWYQQKPGQAPRLLIYDASNRATGIPARFSGSGSGTDFTLTISSLEPEDFAVYYCQQSSNWPRTFGQGTKVEIK
chain: GGGGSGGGGSIPPHVQKSVNNDMIVTDNNGAVKFPQLCKFCDVRFSTCDNQKSCMSNCSITSICEKPQEVCVAVWRKNDENITLETVCHDPKLPYHDFILEDAASPKCIMKEKKKPGETFFMCSCSSDECNDNIIFSEEYNTSNPD
notes: not shown: light-chain constant region (not tied to the IgG1 format); copies: 2 + 2 + 2
IC50; PD-1/PD-L1 blockade bioassay (PD-1 effector cells with PD-L1 aAPC/CHO-K1 cells, luciferase RLU) [1]: 9500 pM

Kd (PD-1 Fc fusion protein [6]): 0.309 pM
B2: Anti-PD1 (VH6-VL5) IgG1-ADA2 (antibody)
heavy (part 1 of 2): B1 VH
heavy (part 2 of 2): GGGGSGGGGSSIDETRAHLLLKEKMMRLGGRLVLNTKEELANERLMTLKIAEMKEAMRTLIFPPSMHFFQAKHLIERSQVFNILRMMPKGAALHLHDIGIVTMDWLVRNVTYRPHCHICFTPRGIMQFRFAHPTPRPSEKCSKWILLEDYRKRVQNVTEFDDSLLRNFTLVTQHPEVIYTNQNVVWSKFETIFFTISGLIHYAPVFRDYVFRSMQEFYEDNVLYMEIRARLLPVYELSGEHHDEEWSVKTYQEVAQKFVETHPEFIGIKIIYSDHRSKDVAVIAESIRMAMGLRIKFPTVVAGFDLVGHEDTGHSLHDYKEALMIPAKDGVKLPYFFHAGETDWQGTSIDRNILDALMLNTTRIGHGFALSKHPAVRTYSWKKDIPIEVCPISNQVLKLVSDLRNHPVATLMATGHPMVISSDDPAMFGAKGLSYDFYEVFMGIGGMKADLRTLKQLAMNSIKYSTLLESEKNTFMEIWKKRWDKFIADVATK
light: B1 VL
notes: also called anti-PD1 (VH6/VL5) hIgG1-ADA2; not shown: IgG1 (hIgG1) heavy chain constant region; light chain constant region
EC50 (read off the curve); PD-1/PD-L1 blockade reporter bioassay (luciferase RLU) [5]: ~0.6 µg/mL

IC50; neutralisation of TGF-β1 signalling, HEK-Blue TGF-β reporter cells (SEAP, absorbance 620 nM) (TGF-β1 [2]): 14.9 pM
IC50; neutralisation of TGF-β3 signalling, HEK-Blue TGF-β reporter cells (SEAP, absorbance 620 nM) (TGF-β3 [3]): 6.7 pM
Kd (TGF-β1 [7]): 5.22 pM
Kd (TGF-β2): 859 pM
Kd (TGF-β3 [8]): 2.19 pM
B3: Anti-PD1(VH6-VL5) IgG4-TGFβRII (antibody)
heavy: QVQLVESGGGVVQPGRSLRLDCKASGITFSNSGMHWVRQAPGKGLEWVAVIWYDGSKRYYADSVKGRFTISRDNSKNTLFLQMNSLRAEDTAVYYCATNDDYWGQGTLVTVSSASTKGPSVFPLAPCSRSTSESTAALGCLVKDYFPEPVTVSWNSGALTSGVHTFPAVLQSSGLYSLSSVVTVPSSSLGTKTYTCNVDHKPSNTKVDKRVESKYGPPCPSCPAPEFLGGPSVFLFPPKPKDTLMISRTPEVTCVVVDVSQEDPEVQFNWYVDGVEVHNAKTKPREEQFNSTYRVVSVLTVLHQDWLNGKEYKCKVSNKGLPSSIEKTISKAKGQPREPQVYTLPPSQEEMTKNQVSLTCLVKGFYPSDIAVEWESNGQPENNYKTTPPVLDSDGSFFLYSRLTVDKSRWQEGNVFSCSVMHEALHNHYTQKSLSLSPGKGGGGSGGGGSIPPHVQKSVNNDMIVTDNNGAVKFPQLCKFCDVRFSTCDNQKSCMSNCSITSICEKPQEVCVAVWRKNDENITLETVCHDPKLPYHDFILEDAASPKCIMKEKKKPGETFFMCSCSSDECNDNIIFSEEYNTSNPD
light: not shown
notes: IgG4 antibody with TGFβRII ECD fused to the C-terminus of the heavy chain; also called anti-PD-1 IgG4 antibody (VH6-VL5)-TGFβRII fusion protein; VH6-IgG4(wt)-linker-ECD with VL5
